How the values were obtained:
[1] = target: T1, mutant full-length MKS1-S30A (histidine-tagged)
T1 chain: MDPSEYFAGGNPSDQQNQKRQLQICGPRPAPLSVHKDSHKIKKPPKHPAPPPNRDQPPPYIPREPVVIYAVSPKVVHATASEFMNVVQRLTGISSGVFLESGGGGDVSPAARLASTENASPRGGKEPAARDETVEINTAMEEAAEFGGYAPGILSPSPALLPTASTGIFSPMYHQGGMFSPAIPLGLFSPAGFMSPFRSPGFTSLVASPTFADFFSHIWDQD

[2] = target: T2, mutant MKS1-S30A C3-truncation (histidine-tagged)
T2 chain: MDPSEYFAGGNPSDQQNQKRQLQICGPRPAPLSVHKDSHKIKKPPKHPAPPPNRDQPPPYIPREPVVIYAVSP

B1: HA (influenza hemagglutin antigen)-tagged MPK4 (protein)
chain: YPYDVPDYAYPYDVPDYAYPYDVPDYAYPYDVPDYAYPYDVPDYAYPYDVPDYAMSAESCFGSSGDQSSSKGVATHGGSYVQYNVYGNLFEVSRKYVPPLRPIGRGAYGIVCAATNSETGEEVAIKKIGNAFDNIIDAKRTLREIKLLKHMDHENVIAVKDIIKPPQRENFNDVYIVYELMDTDLHQIIRSNQPLTDDHCRFFLYQLLRGLKYVHSANVLHRDLKPSNLLLNANCDLKLGDFGLARTKSETDFMTEYVVTRWYRAPELLLNCSEYTAAIDIWSVGCILGETMTREPLFPGKDYVHQLRLITELIGSPDDSSLGFLRSDNARRYVRQLPQYPRQNFAARFPNMSAGAVDLLEKMLVFDPSRRITVDEALCHPYLAPLHDINEEPVCVRPFNFDFEQPTLTEENIKELIYRETVKFNPQDSV
[1]
  in vitro phosphorylation assay (32P-γ-ATP, SDS-PAGE, phosphorimager): the mutant full-length MKS1 (S30A) was phosphorylated
[2]
  in vitro phosphorylation assay (32P-γ-ATP, SDS-PAGE, phosphorimager): the mutant C3 truncated MKS1 (C3-S30A) was not phosphorylated by HA-tagged MPK4
